IntAct's records for PubMed 17981117

Biological target: ima4_human KPNA3 (UniProt O00505)
Sequence (O00505 whole entry): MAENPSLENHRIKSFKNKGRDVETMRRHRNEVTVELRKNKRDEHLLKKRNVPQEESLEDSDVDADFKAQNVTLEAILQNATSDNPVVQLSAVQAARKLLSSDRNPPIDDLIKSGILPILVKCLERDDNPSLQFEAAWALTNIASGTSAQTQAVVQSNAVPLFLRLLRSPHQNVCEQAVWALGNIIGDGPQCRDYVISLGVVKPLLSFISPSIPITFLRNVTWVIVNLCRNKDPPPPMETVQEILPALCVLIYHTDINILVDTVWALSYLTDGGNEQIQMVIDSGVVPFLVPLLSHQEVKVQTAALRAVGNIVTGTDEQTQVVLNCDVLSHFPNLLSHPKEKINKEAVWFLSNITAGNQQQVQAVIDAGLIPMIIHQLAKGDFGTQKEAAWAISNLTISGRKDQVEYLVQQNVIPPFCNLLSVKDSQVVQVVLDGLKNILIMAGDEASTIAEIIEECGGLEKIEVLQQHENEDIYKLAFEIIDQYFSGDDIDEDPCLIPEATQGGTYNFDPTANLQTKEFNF

Substance: Circumsporozoite protein (Plasmodium yoelii yoelii), P06914 R315T;R317T;R319T
- effect of a mutation on the interaction: decreasing interaction
